Measured values: patent US20090022717A1 (CHEMOCENTRYX, published 2009)

T1: CXCR2 (UniProt P25025 1-360, limits assumed)
T1 construct: whole, on cells
T1 sequence (looked up): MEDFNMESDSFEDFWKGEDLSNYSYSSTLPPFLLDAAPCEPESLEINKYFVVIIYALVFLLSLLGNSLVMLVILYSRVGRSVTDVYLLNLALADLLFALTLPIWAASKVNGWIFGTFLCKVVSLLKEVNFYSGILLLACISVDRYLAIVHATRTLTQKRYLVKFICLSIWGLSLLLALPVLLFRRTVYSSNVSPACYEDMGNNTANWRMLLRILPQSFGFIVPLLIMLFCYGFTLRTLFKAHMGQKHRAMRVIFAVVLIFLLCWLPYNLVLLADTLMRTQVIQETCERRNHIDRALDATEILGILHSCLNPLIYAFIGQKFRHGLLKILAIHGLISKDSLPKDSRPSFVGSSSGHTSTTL

B1: monoclonal antibody 11G8 (antibody, V domains shown)
VH: EVKLVESGGDLVQPGGSLKLSCATSGFTFSDYYMFWVRQTPEKRLEWVAYITNGGDRSYYSDTVTGRFIISRDNAKNTLYLQMSRLKSEDTAMYYCARQGNWAAWFVYWGQGTLVTVSA
VL: DVLMTQTPLSLPVSLGDQASISCRSSHYIVHSDGNTYLEWYLQKPGQSPKLLIYKVSNRFSGVPDRFSGSGSGTDFTLKISRVEAEDLGIYYCFQGSHVPLTFGAGTKLELKR
notes: Mouse hybridoma monoclonal raised by gene gun immunisation with CXCR7 cDNA
B2: monoclonal antibody 6E10 (antibody, V domains shown)
VH: EVKLDETGGGLVQPGRPMKLSCVASGFTFSDYWMNWVRQSPEKGLEWVGQIRNKPYNYETYYSDSVKGRFTISRDDSKSSVYLQMNNLRTEDTGIYYCTSLRYWGQGTLVTVSA
VL: DIVMTQSPSSLTVTAGEKVTMSCKSSHSLLNSGIQKNFLTWYQQKPGQPPKVLIYWAFTRESGVPERFTGSGSGTDFTLTISSVQAEDLAVYYCQSDYTYPFTFGSGTKLEIKR
notes: as for B1

Experiments:
CXCR2 = molecular target: T1, CXCR2; experiment: flow cytometry on transfected HEK 293 cells
mouse CXCR7 = molecular target: T2, mouse CXCR7 (mouse, UniProt P56485 1-362); experiment: detection on mouse 4T1 mammary tumor cells and Lewis lung carcinoma cells
T2 construct: whole, on cells; Endogenous on the mouse mammary tumor line 4T1 and on Lewis lung carcinoma cells; also E13 fetal mouse sections; also called mouse homolog of CXCR7

human CXCR7 = molecular target: T3, human CXCR7 (human, UniProt P25106 1-362); experiment: flow cytometry on CXCR7 transfectants (HEK 293) and on HeLa and MCF-7 cells
T3 construct: also called RDC1; CCX-CKR2

monoclonal antibody 11G8 [1] = molecular target: B1; experiment: peptide pre-incubated with antibody, then FACS staining of CXCR7-expressing cells (FIG. 2, 11G8 on 435-CXCR7 cells)
Description: (§1) We have established that both 11G8 and 6E10 antibodies recognize CXCR7 receptor expressed on the surface of cells by FACS. This is represented as an increase in florescent signal (filled) over background (open line) along the X axis of FACS plot (FIG. 2). To interrogate which amino acid residues 11G8 and 6E10 recognize and bind to, a number of short peptides (0.5-5 μg) derived from the CXCR7 sequence were pre-incubated with either antibody (0.5-5 μg) in 100 μl PBS. This mixture was then incubated with 500,000 cells expressing CXCR7 for 15 minutes at room temperature. If the antibody recognized the sequence encoded by the peptide, then the peptide would effectively compete antibody away from binding to the cell associated receptor resulting in a subsequent reduction in florescence on a FACS plot. […] These readouts are exemplified in FIG. 2 with “no peptide” representing […] antibody staining, “peptide 2.2.1” representing peptide competition, and “peptide 2.3.4” representing no peptide competition. Through slight alternations of the peptide sequence in this assay, the minimal peptide sequence necessary for antibody recognition was discerned. FIG. 3 illustrates a summary of peptides that competed with either antibody 11G8 or 6E10.

monoclonal antibody 11G8 [2] = molecular target: B1; experiment: peptide competition of antibody staining of CXCR7-expressing cells, FACS
Description: as §1

monoclonal antibody 6E10 = molecular target: B2; experiment: as above
Description: as §1

T3 sequence (P25106 whole entry): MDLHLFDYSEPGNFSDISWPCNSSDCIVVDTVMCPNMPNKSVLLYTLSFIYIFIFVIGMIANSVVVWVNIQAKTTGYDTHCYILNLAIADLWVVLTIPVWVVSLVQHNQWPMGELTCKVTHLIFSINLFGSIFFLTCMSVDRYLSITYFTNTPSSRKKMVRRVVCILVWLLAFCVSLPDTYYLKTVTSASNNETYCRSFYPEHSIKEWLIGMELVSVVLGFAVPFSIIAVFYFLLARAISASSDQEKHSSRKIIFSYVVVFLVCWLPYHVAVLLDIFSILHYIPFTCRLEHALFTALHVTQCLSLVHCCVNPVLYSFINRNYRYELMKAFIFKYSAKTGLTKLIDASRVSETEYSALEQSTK
T2 sequence (P56485 whole entry): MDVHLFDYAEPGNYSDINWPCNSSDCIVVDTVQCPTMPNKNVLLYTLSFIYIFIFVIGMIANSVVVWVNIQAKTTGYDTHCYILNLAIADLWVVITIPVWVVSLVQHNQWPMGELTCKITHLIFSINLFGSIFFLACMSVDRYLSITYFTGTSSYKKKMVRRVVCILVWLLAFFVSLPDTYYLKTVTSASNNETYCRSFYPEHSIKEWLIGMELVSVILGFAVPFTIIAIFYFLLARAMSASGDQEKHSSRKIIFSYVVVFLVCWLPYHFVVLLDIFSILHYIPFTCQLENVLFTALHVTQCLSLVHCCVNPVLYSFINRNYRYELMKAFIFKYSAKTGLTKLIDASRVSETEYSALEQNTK

Row | binding result (monoclonal antibody 11G8 [2]) | binding result (monoclonal antibody 6E10) | Binder | other results
1 |  |  | B1 | binding result (CXCR2): no binding; binding result (mouse CXCR7): binds; binding result (human CXCR7): binds
2 |  |  | PCNSSDCIV [peptide 2.3.4] | binding result (monoclonal antibody 11G8 [1]): no binding
3 | binds |  | YSDINWPC (also called Peptide 2.2.3) [SEQ ID NO 14] | 
4 | binds |  | NFSDISWP (also called Peptide 2.3.1) [SEQ ID NO 18] | 
5 |  |  | B2 | binding result (CXCR2): no binding; binding result (mouse CXCR7): binds; binding result (human CXCR7): binds
6 |  | binds | SWPCNSSDCIVV (also called Peptide 2.1.2) [SEQ ID NO 9] | 
7 |  | binds | NWPCNSSDCIVV (also called Peptide 2.2.6) [SEQ ID NO 17] | 
8 | binds | binds | FSDISWPCNSSDCIVVD (also called Peptide 2) [SEQ ID NO 2] | 
9 |  | binds | WPCNSSDCIVV (also called Peptide 2.2.5) [SEQ ID NO 16] | 
10 |  | binds | DISWPCNSSDCI (also called Peptide 2.1.1) [SEQ ID NO 8] | 
11 | binds |  | DYSEPGNFSDISWPC (also called Peptide 9C4) [SEQ ID NO 11] | 
12 | binds |  | FSDISWPC (also called Peptide 2.2.1) [SEQ ID NO 12] | 
